Here are results for one substance from paper PMC2138052.

In this assay the target is Rabbit muscle F-actin (rabbit) (UniProt P68135). Put plainly: co-sedimentation.

Take “Recombinant human cofilin (from UniProt P23528 1-166) (natural protein)”: the stoichiometry N (cofilin/actin) turned out to be 1.16.
